± gives the uncertainty stated by the source.
Experiment: self-splicing fitness, log relative to wild type (ln ratio); higher = more splicing; Tetrahymena group I intron in knt gene, E. coli kanamycin selection, DiMSum; sequences stand for … in CUCUCU…GGAGGGAAAAGUUAUCAGGCAUGCACCUGGUAGCUAGUCUUUAAACCAAUAGAUUGCAUCGGUUUAAAAGGCAAGACCGUCAAAUUGCGGGAAAGGGGUCAACAGCCGUUCAGUACCAAGUCUCAGGGGAAACUUUGAGAUGGCCUUGCAAAGGGUAUGGUAAUAAGCUGACGGACAUGGUCCUAACCACGCAGCCAAGUCCUAAGUCAACAGAUCUUCUGUUGAUAUGGAUGCAGUUCACAGACUAAAUGUCGGUCGGGGAAGAUGUAUUCUUCUCAUAAGAUAUAGUCGGACCUCUCCUUAAUGGGAGCUAGCGGAUGAAGUGAUGCAACACUGGAGCCGCUGGGAACUAAUUUGUAUGCGAAAGUAUAUUGAUUAGUUUUGGAGUACUCGUGGUCG
Summary of the method: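 Fitness was computed with DiMSum as the error-weighted combination of replicate fold changes, kanamycin versus none, each normalised to wild type. The library randomised all eight intron nucleotides of the P1ex region, with the intron placed in the knt kanamycin-resistance gene on pET-22b(+) in E. coli BL21(DE3). Six replicate transformations were grown overnight at 37°C or 30°C on LB agar with or without 25 μg/mL kanamycin, plus 100 μg/mL carbenicillin, 50 μM IPTG and 0.2% rhamnose. Pooled colonies were amplicon-sequenced on an Illumina HiSeq 2500.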

| Sequence | self-splicing fitness (ln) (30 °C) | self-splicing fitness (ln) (37 °C) |
| --- | --- | --- |
| GGCGAGCAAUAUUACGAUUU | -1.09 ± 0.092 | -0.569 ± 0.12 |
| GCUUAGCAAUAUUACGGCCC | 0.0255 ± 0.31 | – |
| AGCCAGCAAUAUUACGCGUU | -2.17 ± 0.12 | -0.95 ± 0.12 |
| AUGUAGCAAUAUUACGUAGA | -3.11 ± 0.32 | -2.65 ± 0.29 |
| CUAGAGCAAUAUUACGCCUU | -3.42 ± 0.19 | -0.994 ± 0.24 |
| CACUAGCAAUAUUACGGUCG | -0.198 ± 0.072 | 0.007 ± 0.085 |
| UGCCAGCAAUAUUACGUAUC | -3.22 ± 0.19 | -3.05 ± 0.28 |
| AUUUAGCAAUAUUACGGAAG | -1.33 ± 0.29 | -1.49 ± 0.39 |
| UAUGAGCAAUAUUACGCGCG | -2.51 ± 0.31 | -1.01 ± 0.27 |
| AUUGAGCAAUAUUACGCCGC | -2.67 ± 0.49 | – |
| GAGUAGCAAUAUUACGAUCC | -1.55 ± 0.092 | -0.509 ± 0.11 |
| UCAAAGCAAUAUUACGCACC | – | -0.644 ± 0.36 |
| UCAUAGCAAUAUUACGUCUC | -1.43 ± 0.32 | – |
| AACAAGCAAUAUUACGUCAA | -1.68 ± 0.094 | -1.59 ± 0.11 |
| AAGUAGCAAUAUUACGCAAC | -3.33 ± 0.25 | -2.87 ± 0.35 |
| CAGCAGCAAUAUUACGAUAG | -0.297 ± 0.063 | -0.0435 ± 0.077 |
| UUAGAGCAAUAUUACGUAUA | -3.64 ± 0.43 | -0.846 ± 0.27 |
| AGGAAGCAAUAUUACGUAAG | -1.39 ± 0.11 | -2.01 ± 0.17 |
| UAAGAGCAAUAUUACGCAUC | -4.23 ± 0.3 | -3.46 ± 0.37 |
| AGAAAGCAAUAUUACGGAGU | -2.55 ± 0.11 | -1.11 ± 0.11 |
| CCAAAGCAAUAUUACGUAGG | -3.85 ± 0.18 | -1.66 ± 0.12 |
| CGACAGCAAUAUUACGGUUA | -0.601 ± 0.062 | 0.0311 ± 0.067 |
| UAUCAGCAAUAUUACGCCCC | 1 ± 0.34 | -1.06 ± 0.41 |
| UGAAAGCAAUAUUACGCAAU | -2.16 ± 0.24 | 0.457 ± 0.23 |
| ACGUAGCAAUAUUACGCGCA | -0.687 ± 0.076 | -0.337 ± 0.097 |

| Sequence | self-splicing fitness (ln) (30 °C) | self-splicing fitness (ln) (37 °C) |
| --- | --- | --- |
| ACGGAGCAAUAUUACGCAAG | -3.14 ± 0.27 | -1.79 ± 0.26 |
| UUUGAGCAAUAUUACGCCUC | – | -0.879 ± 0.39 |
| AAAAAGCAAUAUUACGCUGG | -1.73 ± 0.11 | -0.618 ± 0.13 |
| CAUGAGCAAUAUUACGAUCU | -2.9 ± 0.36 | -2.37 ± 0.3 |
| AGACAGCAAUAUUACGAAUA | -2.38 ± 0.24 | -1.62 ± 0.19 |
| UCAGAGCAAUAUUACGUCCG | -2.17 ± 0.2 | -1.14 ± 0.25 |
| ACACAGCAAUAUUACGUGAC | -4.1 ± 0.13 | -2.05 ± 0.11 |
| CAGGAGCAAUAUUACGCAAA | -4.2 ± 0.46 | – |
| ACACAGCAAUAUUACGAACC | -2.57 ± 0.48 | -1.09 ± 0.45 |
| GUAAAGCAAUAUUACGCAGC | -2.42 ± 0.22 | -1.25 ± 0.2 |
| GUGAAGCAAUAUUACGUCAA | -1.07 ± 0.077 | -0.245 ± 0.084 |
| GGACAGCAAUAUUACGUCGG | -0.852 ± 0.099 | -0.674 ± 0.14 |
| AAUUAGCAAUAUUACGAACA | -0.672 ± 0.16 | -0.784 ± 0.18 |
| ACGCAGCAAUAUUACGUAAU | -2.48 ± 0.083 | -2.13 ± 0.12 |
| GACAAGCAAUAUUACGGCAU | -0.363 ± 0.067 | 0.227 ± 0.088 |
| CACCAGCAAUAUUACGGCCC | -1.8 ± 0.17 | -0.352 ± 0.19 |
| GAUCAGCAAUAUUACGUCGG | -4.18 ± 0.3 | -2.39 ± 0.2 |
| UUUUAGCAAUAUUACGUAGU | -1.9 ± 0.37 | – |
| GCAGAGCAAUAUUACGUACC | -1.95 ± 0.17 | -0.941 ± 0.19 |
| AAAUAGCAAUAUUACGCAGU | -3.79 ± 0.2 | -1.57 ± 0.14 |
| GUACAGCAAUAUUACGAACU | -0.664 ± 0.15 | -1.24 ± 0.2 |
| UGCGAGCAAUAUUACGUUCC | -2.19 ± 0.18 | -2.66 ± 0.34 |
| AAGCAGCAAUAUUACGUCUG | -4.47 ± 0.37 | -1.72 ± 0.26 |
| AGAUAGCAAUAUUACGCAUC | -1.84 ± 0.3 | -1.91 ± 0.36 |
| CUUAAGCAAUAUUACGAGCC | – | -3.51 ± 0.48 |

| Sequence | self-splicing fitness (ln) (30 °C) | self-splicing fitness (ln) (37 °C) |
| --- | --- | --- |
| CACGAGCAAUAUUACGCGUG | -2.79 ± 0.19 | -2.97 ± 0.38 |
| CAAAAGCAAUAUUACGGUUC | -3.56 ± 0.22 | -1.83 ± 0.18 |
| GACAAGCAAUAUUACGGCAG | -4.14 ± 0.31 | -3.08 ± 0.35 |
| GGGAAGCAAUAUUACGGGUG | -2.68 ± 0.13 | -2.12 ± 0.18 |
| CGGAAGCAAUAUUACGCCUU | -3.2 ± 0.17 | -3.48 ± 0.3 |
| UACCAGCAAUAUUACGAGAA | -1.72 ± 0.14 | -1.22 ± 0.13 |
| GGUUAGCAAUAUUACGACUU | -0.187 ± 0.12 | 1.17 ± 0.16 |
| UUAAAGCAAUAUUACGUUAA | -0.426 ± 0.071 | 0.14 ± 0.091 |
| UACGAGCAAUAUUACGCGCU | – | -3.38 ± 0.31 |
| UUUCAGCAAUAUUACGAGGC | -2.12 ± 0.22 | – |
| AGGGAGCAAUAUUACGAUAU | – | -1.88 ± 0.47 |
| GCUGAGCAAUAUUACGAGGG | -2.71 ± 0.16 | -2.45 ± 0.31 |
| CACUAGCAAUAUUACGCUUG | -2.03 ± 0.16 | -0.991 ± 0.13 |
| GUUUAGCAAUAUUACGGUUA | -1.68 ± 0.18 | -0.49 ± 0.12 |
| CCGUAGCAAUAUUACGACUA | – | -1.08 ± 0.25 |
| GGGAAGCAAUAUUACGGUUG | -4.02 ± 0.33 | -2.74 ± 0.22 |
| AGCAAGCAAUAUUACGCUGA | -2.22 ± 0.14 | -2.07 ± 0.17 |
| GGCUAGCAAUAUUACGUUCA | -0.464 ± 0.094 | 0.156 ± 0.11 |
| ACGCAGCAAUAUUACGCAAC | -3.91 ± 0.32 | -1.83 ± 0.18 |
| CAAAAGCAAUAUUACGUCUU | -2.5 ± 0.082 | -1.24 ± 0.08 |
| CAUGAGCAAUAUUACGUUCG | -1.33 ± 0.13 | -0.161 ± 0.14 |
| GAGGAGCAAUAUUACGCUCA | -0.973 ± 0.24 | -0.181 ± 0.27 |
| GAACAGCAAUAUUACGUAGA | -0.427 ± 0.049 | -0.162 ± 0.069 |
| UACUAGCAAUAUUACGGGAC | -3.54 ± 0.17 | -2.72 ± 0.16 |
| AAGAAGCAAUAUUACGUAUG | -1.93 ± 0.11 | -1.14 ± 0.1 |

| Sequence | self-splicing fitness (ln) (30 °C) | self-splicing fitness (ln) (37 °C) |
| --- | --- | --- |
| ACUCAGCAAUAUUACGGUGC | -1.69 ± 0.07 | -0.59 ± 0.082 |
| CGCAAGCAAUAUUACGUCCG | -0.62 ± 0.12 | 0.53 ± 0.2 |
| GCCAAGCAAUAUUACGCUAG | -3.06 ± 0.15 | -2.25 ± 0.17 |
| CAACAGCAAUAUUACGCAUG | -2.41 ± 0.11 | -1.27 ± 0.14 |
| GCCCAGCAAUAUUACGUUCU | -1.95 ± 0.079 | -1.18 ± 0.091 |
| UUUUAGCAAUAUUACGCCUA | -1 ± 0.2 | -0.553 ± 0.22 |
| UCCAAGCAAUAUUACGCUUA | -3.43 ± 0.18 | -1.86 ± 0.11 |
| CGGUAGCAAUAUUACGUGCU | -3.24 ± 0.28 | -2.51 ± 0.29 |
| GGGAAGCAAUAUUACGCUGA | -2.63 ± 0.33 | -1.54 ± 0.25 |
| UCAGAGCAAUAUUACGCGUC | -2.62 ± 0.18 | – |
| CAGGAGCAAUAUUACGCAAG | -2.98 ± 0.35 | -1.06 ± 0.27 |
| GGGCAGCAAUAUUACGCGCU | -2.33 ± 0.19 | -1.44 ± 0.35 |
| UAUUAGCAAUAUUACGCGCA | -0.12 ± 0.13 | 0.163 ± 0.18 |
| CACAAGCAAUAUUACGCGGG | -3 ± 0.14 | -0.984 ± 0.12 |
| AGCGAGCAAUAUUACGAGUA | -1.68 ± 0.26 | -1.18 ± 0.29 |
| AGUCAGCAAUAUUACGGAGA | – | -1.53 ± 0.38 |
| UAGAAGCAAUAUUACGCCAG | -1.3 ± 0.16 | -0.617 ± 0.21 |
| GCCAAGCAAUAUUACGGAUG | -1.24 ± 0.057 | -0.693 ± 0.07 |
| GUCAAGCAAUAUUACGGACU | -4.38 ± 0.39 | -2.72 ± 0.26 |
| GAGGAGCAAUAUUACGUGUG | -2.33 ± 0.22 | -2.54 ± 0.26 |
| GAUCAGCAAUAUUACGAACC | -0.755 ± 0.19 | -1.48 ± 0.28 |
| GGGGAGCAAUAUUACGGUAA | -2.05 ± 0.28 | -2.82 ± 0.3 |
| ACGUAGCAAUAUUACGUUAG | -3.99 ± 0.16 | -2.13 ± 0.15 |
| UUUUAGCAAUAUUACGUGCU | -2.43 ± 0.47 | -0.459 ± 0.22 |

Source: the supplement of paper PMC7877785
